Test results: patent US20120231006A1 (Amgen, published 2012)
Residue numbers refer to the chain shown, from its start.

B1: mAb 5D7.2 (antibody, human IgG2, lambda, V domains shown)
VH: QVQLVQSGAEVKKPGASVKVSCKASGYTFTDYYMNWVRQAPGQGLEWMGWINPNSGGTKYAQKFQGRVTMTRDTSIRTAYMELSRLRSDDTAVYYCAREYGGNSDWFDPWGQGTLVTVSS
VL: QSVLTQPPSVSGAPGQRVTISCTGSSSNIGAGYDVHWYQQSPGTAPKLLIYGNSNRPSGVPDRFSGSKSGTSASLAITGLQAEDEADYYCQSYDNRLSDSVVIGGGTKLTVQG
notes: fully human IgG2 lambda, Campaign 2, recombinant
B2: mAb 5B5.1 (antibody, human IgG2, lambda, V domains shown)
VH: B1 VH with M34I, K59D, S84N, R87T, N103Y, S104E
VL: QSVLTQPPSVSGAPGQRVTISCTGSNSNIGAGFDVHWYQQLPGTVPKLLIYGNNNRPSGVPDRFSGSKSGTSASLAITGLQAEDEADYYCQSYDSRLTVFGGGTKLTVLG
notes: fully human IgG2 lambda, Campaign 2, recombinant; same chains as 5B5.2
B3: mAb 5H3.1 (antibody, human IgG2, lambda, V domains shown)
VH: B1 VH
VL: B1 VL with S41L, T110A
notes: as for B1

Legend:
human Orai1 [1] = biological target: T1, human Orai1 (human, UniProt Q96D31 1-301); assay: FACS Kd, AM1-CHO/hOrai1/hSTIM1-YFP cells
T1 construct: on AM1-CHO/hOrai1/hSTIM1-YFP, AM1/hOrai1, HEK-293 transfectants, endogenous on Jurkat and blood cells; in Westerns from cell lysates; also called hOrai1; CRACM1
Description: The equilibrium plates were centrifuged at 500 g for 3 minutes and cell pellets were washed twice with 200 μL of ice cold FACS buffer (1×D-PBS+2% FBS). The cells were then incubated with a secondary antibody, goat anti-human Fc Cy5 at 5 μg/mL and 100 μL per well for 1 h on ice in the dark. Following the incubation, the cells were washed twice with 200 μL of ice-cold FACS buffer before flow cytometry analysis. The GeoMean values gated on live cell population measure the bound [Ab]. The inverse of the GeoMean values that reflects theoretical free [Ag] in the equilibrium solution was then calculated. The inverse values of the GeoMean read were used in KinExA® Pro software for analysis and Kd calculation for each antibody. The free [Ag] measure was plotted against the starting concentration of titrating component and from these plots at two different cell concentrations the Kd was obtained from curve fitting using n-curve analysis in KinExA Pro software. […] Shown in Table 14 (below) are the equilibrium dissociation constant (Kd) values of invented mAbs determined by FACS Kd measurement.

human Orai1 [2] = biological target: T1, human Orai1; assay: cell-based or functional assay

T1 sequence (Q96D31 whole entry): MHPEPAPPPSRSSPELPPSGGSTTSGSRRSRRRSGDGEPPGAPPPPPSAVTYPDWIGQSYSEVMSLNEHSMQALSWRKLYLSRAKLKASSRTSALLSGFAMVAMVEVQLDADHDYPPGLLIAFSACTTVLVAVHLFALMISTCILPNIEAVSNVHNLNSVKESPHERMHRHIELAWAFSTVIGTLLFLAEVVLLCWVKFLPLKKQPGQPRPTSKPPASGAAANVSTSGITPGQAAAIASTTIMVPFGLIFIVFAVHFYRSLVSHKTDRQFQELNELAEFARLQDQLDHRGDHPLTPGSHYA

| Binder | Kd (human Orai1 [1]) [nM] | IC50 IFN-γ, whole blood Donor A, recombinant mAb (human Orai1 [2]) [nM] | IC50 IFN-γ, whole blood Donor B, recombinant mAb (human Orai1 [2]) [nM] | IC50 IL-2, whole blood Donor A, recombinant mAb (human Orai1 [2]) [nM] | IC50 IL-2, whole blood Donor B, recombinant mAb (human Orai1 [2]) [nM] |
| --- | --- | --- | --- | --- | --- |
| B1 | 0.483 | 2.67 | 1.17 | 3.17 | 0.8 |
| B2 | 0.735 | 0.8 | 42.9 | 1.34 | 1.14 |
| B3 | 0.649 | 0.1 | 2.55 | 0.87 | 1.59 |
